In article PMC4336284 one finds binding data, which are given here for one sequence.

For this series, the system named is T1, GAF (GAGA-binding factor), His-GAF (Drosophila melanogaster), Q08605-2.
T1 sequence: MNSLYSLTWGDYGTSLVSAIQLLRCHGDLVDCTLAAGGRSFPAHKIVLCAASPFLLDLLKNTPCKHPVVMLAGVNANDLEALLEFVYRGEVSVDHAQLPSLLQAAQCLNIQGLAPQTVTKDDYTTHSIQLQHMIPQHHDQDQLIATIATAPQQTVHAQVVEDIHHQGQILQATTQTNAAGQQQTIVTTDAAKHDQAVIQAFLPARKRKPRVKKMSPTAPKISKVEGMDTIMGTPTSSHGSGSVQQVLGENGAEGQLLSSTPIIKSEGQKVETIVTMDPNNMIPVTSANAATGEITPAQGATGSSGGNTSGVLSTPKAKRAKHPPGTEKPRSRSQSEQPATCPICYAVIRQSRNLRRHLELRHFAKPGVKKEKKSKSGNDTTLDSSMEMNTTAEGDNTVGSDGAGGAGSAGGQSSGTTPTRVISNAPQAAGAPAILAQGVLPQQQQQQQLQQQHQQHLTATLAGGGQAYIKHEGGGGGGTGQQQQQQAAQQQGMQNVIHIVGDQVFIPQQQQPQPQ
In words: EMSA. The note with it: GAF: band shift buffer of cited ref 25 (composition not given), poly(dI-dC) 10 ng, 4.5% acrylamide Tris/borate/EDTA gel; HSF: 10 ug extract protein, as in ref ….

For “CTGTTCTCGTTGCTTCGAGAGAGCGCGCCTCGAATGTTCGCGAAAAGAGCGCCGGAGTATAAATAGAGGAGCTTCGTCGACGGAGAGTCAA (double strand) [hsp70Aa promoter PCR fragment]”, the binding result is given as “binds”.
